# Experimental data reported in article PMC7247563, “Glycosylation Tunes Neuroserpin Physiological and Pathological Properties” (International Journal of Molecular Sciences, 2020).
# B1: bacterially expressed human neuroserpin (non-glycosylated) (natural protein, UniProt Q99574 17-410, looked up)
# chain: TGATFPEEAIADLSVNMYNRLRATGEDENILFSPLSIALAMGMMELGAQGSTQKEIRHSMGYDSLKNGEEFSFLKEFSNMVTAKESQYVMKIANSLFVQNGFHVNEEFLQMMKKYFNAAVNHVDFSQNVAVANYINKWVENNTNNLVKDLVSPRDFDAATYLALINAVYFKGNWKSQFRPENTRTFSFTKDDESEVQIPMMYQQGEFYYGEFSDGSNEAGGIYQVLEIPYEGDEISMMLVLSRQEVPLATLEPLVKAQLVEEWANSVKKQKVEVYLPRFTVEQEIDLKDVLKALGITEIFIKDANLTGLSDNKEIFLSKAIHKSFLEVNEEGSEAAAVSGMIAISRMAVLYPQVIVDHPFFFLIRNRRTGTILFMGRVMHPETMNTSGHDFEEL
# notes: human neuroserpin (NS), wild type, from the pQE81L plasmid carrying the human NS gene; theoretical mass of the construct 46,271 Da; Samples were a mix of native NS and NS cleaved at Arg362; also called NS; bacterially purified NS; source: E. coli BL21 Rosetta (DE3) pLysS, purified (HiTrap Chelating HP, Superdex200 gel filtration)
# Molecular target: the molecule itself
# Test: SEC; 63.8 uM NS or gNS in 10 mM Tris-HCl pH 8.0, 50 mM KCl, incubated at 45 °C; aliquots at different times run on a Superdex 200 Increase 10/300 GL column; heat-induced polymerisation
protein,measurement,value
B1,binding result,binds
